Two substances from publication PMC10533412, “Phosphoantigens glue butyrophilin 3A1 and 2A1 to activate Vγ9Vδ2 T cells” (Nature, 2023) can be followed below.

For orientation: pKd means −log10 of the Kd, conventionally taken in molar units.

In experiment [1] the target is VpBTN3 butyrophilin full intracellular domain (BFI) (alpaca (Vicugna pacos)). Put plainly: ITC; with IPP. The following applies: domain or fragment. (In general: ITC needs no label: the signal is the heat of the interaction.)
Experiment [2] has the same target. Put plainly: ITC; with DMAPP. The following applies: domain or fragment.
Experiment [3] has the same target. Kind of experiment: ITC; with HMBPP. To be noted: domain or fragment.
The target of experiment [4] is BTN2A1 B30.2 domain (UniProt Q7KYR7). Put plainly: ITC. To be noted: with HMBPP.
BTN2A1 B30.2 domain, sequence (Q7KYR7 whole entry, looked up, tested part not stated): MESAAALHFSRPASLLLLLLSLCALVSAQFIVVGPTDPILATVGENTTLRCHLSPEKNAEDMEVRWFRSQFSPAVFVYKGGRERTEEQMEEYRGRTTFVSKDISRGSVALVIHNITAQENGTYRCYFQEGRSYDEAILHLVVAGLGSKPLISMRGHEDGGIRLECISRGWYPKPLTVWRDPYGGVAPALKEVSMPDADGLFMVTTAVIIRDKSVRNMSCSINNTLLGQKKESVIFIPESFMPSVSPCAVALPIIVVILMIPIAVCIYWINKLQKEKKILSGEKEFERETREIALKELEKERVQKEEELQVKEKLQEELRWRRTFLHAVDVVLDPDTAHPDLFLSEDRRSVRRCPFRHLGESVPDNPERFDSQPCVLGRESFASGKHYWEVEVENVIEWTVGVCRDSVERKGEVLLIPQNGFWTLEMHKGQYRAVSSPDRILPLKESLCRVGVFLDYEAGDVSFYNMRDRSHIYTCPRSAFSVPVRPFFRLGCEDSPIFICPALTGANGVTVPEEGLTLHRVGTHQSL
Experiment [5] concerns the target HMBPP. Kind of experiment: ITC.

pKd: −log10 of the molar value.

As for “VpBTN2 butyrophilin full intracellular domain (BFI)”, the pKd in experiment [1] is 3.72; in experiment [2], 4.33; in experiment [3], 6.18.

BTN3A3 B30.2 R351H: the figures for the pKd in experiment [4] and in experiment [5] were 6.34 and 4.96, respectively.
